Reference: the Human Domainome abundance scans (Beltran et al. 2025)
± gives the uncertainty stated by the source.

Assay: abundance fitness (aPCA) (normalised: wild type 0, dead -1); higher = more abundant; growth selection in yeast, the domain comes from the species named
Details: Homo sapiens

Substance | abundance fitness
Scaffold attachment factor B1 D67R, Q15424 | -0.168 ± 0.049
Scaffold attachment factor B1 L39I, Q15424 | -0.264 ± 0.1
Scaffold attachment factor B1 V56H, Q15424 | -0.226 ± 0.076
Scaffold attachment factor B1 V48P, Q15424 | -0.691 ± 0.091
Scaffold attachment factor B1 R30D, Q15424 | -0.384 ± 0.092
Scaffold attachment factor B1 M58I, Q15424 | -0.151 ± 0.071
Scaffold attachment factor B1 G70K, Q15424 | -0.207 ± 0.081
Scaffold attachment factor B1 D33K, Q15424 | -0.451 ± 0.069
Scaffold attachment factor B1 L31M, Q15424 | -0.338 ± 0.087
Scaffold attachment factor B1 D38G, Q15424 | -0.558 ± 0.051
Scaffold attachment factor B1 E59M, Q15424 | -0.131 ± 0.064
Scaffold attachment factor B1 I75D, Q15424 | -0.449 ± 0.11
Scaffold attachment factor B1 K62A, Q15424 | -0.073 ± 0.052
Scaffold attachment factor B1 E68M, Q15424 | -0.461 ± 0.054
Scaffold attachment factor B1 R60P, Q15424 | -0.492 ± 0.072
Scaffold attachment factor B1 N71W, Q15424 | -0.39 ± 0.057
Scaffold attachment factor B1 D49P, Q15424 | -0.285 ± 0.068
Scaffold attachment factor B1 E66K, Q15424 | -0.169 ± 0.082
Scaffold attachment factor B1 G70R, Q15424 | -0.196 ± 0.053
Scaffold attachment factor B1 M58H, Q15424 | -0.344 ± 0.079
Scaffold attachment factor B1 A64T, Q15424 | -0.125 ± 0.078
Scaffold attachment factor B1 L43K, Q15424 | -0.9 ± 0.095

Substance | abundance fitness
Scaffold attachment factor B1 R46M, Q15424 | -0.384 ± 0.1
Scaffold attachment factor B1 I37D, Q15424 | -0.175 ± 0.075
Scaffold attachment factor B1 A41K, Q15424 | -0.205 ± 0.068
Scaffold attachment factor B1 R60C, Q15424 | -0.676 ± 0.1
Scaffold attachment factor B1 T26C, Q15424 | -0.22 ± 0.079
Scaffold attachment factor B1 D33Q, Q15424 | -0.192 ± 0.069
Scaffold attachment factor B1 L39K, Q15424 | -0.996 ± 0.072
Scaffold attachment factor B1 T78N, Q15424 | -0.182 ± 0.11
Scaffold attachment factor B1 E76W, Q15424 | -0.305 ± 0.07
Scaffold attachment factor B1 N71A, Q15424 | -0.329 ± 0.071
Scaffold attachment factor B1 G52F, Q15424 | -1.25 ± 0.11
Scaffold attachment factor B1 G70S, Q15424 | -0.197 ± 0.057
Scaffold attachment factor B1 R30W, Q15424 | -0.444 ± 0.053
Scaffold attachment factor B1 R30E, Q15424 | -0.252 ± 0.06
Scaffold attachment factor B1 T78H, Q15424 | -0.427 ± 0.096
Scaffold attachment factor B1 I37K, Q15424 | -0.103 ± 0.076
Scaffold attachment factor B1 G52T, Q15424 | -0.939 ± 0.078
Scaffold attachment factor B1 E68I, Q15424 | -0.469 ± 0.05
Scaffold attachment factor B1 D49S, Q15424 | -0.219 ± 0.062
Scaffold attachment factor B1 S50K, Q15424 | -0.558 ± 0.11
Scaffold attachment factor B1 K62V, Q15424 | -0.246 ± 0.052
Scaffold attachment factor B1 E76I, Q15424 | -0.291 ± 0.093

Substance | abundance fitness
Scaffold attachment factor B1 N47R, Q15424 | -0.207 ± 0.065
Scaffold attachment factor B1 I75Q, Q15424 | -0.311 ± 0.071
Scaffold attachment factor B1 T78A, Q15424 | -0.345 ± 0.09
Scaffold attachment factor B1 G70E, Q15424 | -0.244 ± 0.072
Scaffold attachment factor B1 L34Y, Q15424 | -0.316 ± 0.056
Scaffold attachment factor B1 L57H, Q15424 | -0.842 ± 0.1
Scaffold attachment factor B1 G27D, Q15424 | -0.027 ± 0.08
Scaffold attachment factor B1 S55V, Q15424 | -0.081 ± 0.055
Scaffold attachment factor B1 G52D, Q15424 | -0.691 ± 0.084
Scaffold attachment factor B1 S51G, Q15424 | -0.111 ± 0.058
Scaffold attachment factor B1 N71S, Q15424 | -0.19 ± 0.063
Scaffold attachment factor B1 M58P, Q15424 | -0.598 ± 0.1
Scaffold attachment factor B1 D38M, Q15424 | -0.536 ± 0.071
Scaffold attachment factor B1 K54I, Q15424 | -0.271 ± 0.077
Scaffold attachment factor B1 D49M, Q15424 | -0.464 ± 0.062
Scaffold attachment factor B1 A64Q, Q15424 | -0.162 ± 0.086
Scaffold attachment factor B1 D49F, Q15424 | -0.762 ± 0.13
Scaffold attachment factor B1 T26A, Q15424 | -0.282 ± 0.12
Scaffold attachment factor B1 V36Q, Q15424 | -0.417 ± 0.085
Scaffold attachment factor B1 A64P, Q15424 | -0.603 ± 0.087
Scaffold attachment factor B1 R35H, Q15424 | -0.475 ± 0.089
Scaffold attachment factor B1 N71K, Q15424 | -0.253 ± 0.073

Substance | abundance fitness
Scaffold attachment factor B1 S55N, Q15424 | -0.13 ± 0.08
Scaffold attachment factor B1 E74V, Q15424 | -0.157 ± 0.055
Scaffold attachment factor B1 D67K, Q15424 | -0.258 ± 0.091
Scaffold attachment factor B1 M58K, Q15424 | -0.253 ± 0.086
Scaffold attachment factor B1 T78M, Q15424 | -0.356 ± 0.086
Scaffold attachment factor B1 S50N, Q15424 | -0.316 ± 0.091
Scaffold attachment factor B1 G70Y, Q15424 | -0.483 ± 0.1
Scaffold attachment factor B1 L57G, Q15424 | -0.759 ± 0.069
Scaffold attachment factor B1 E42C, Q15424 | -0.346 ± 0.063
Scaffold attachment factor B1 V36W, Q15424 | -0.37 ± 0.07
Scaffold attachment factor B1 L61S, Q15424 | -0.508 ± 0.062
Scaffold attachment factor B1 L43G, Q15424 | -0.752 ± 0.05
Scaffold attachment factor B1 R30H, Q15424 | -0.16 ± 0.063
Scaffold attachment factor B1 R35I, Q15424 | -0.556 ± 0.08
Scaffold attachment factor B1 N47P, Q15424 | -1.01 ± 0.11
Scaffold attachment factor B1 D73T, Q15424 | -0.231 ± 0.056
Scaffold attachment factor B1 D33N, Q15424 | -0.291 ± 0.068
Scaffold attachment factor B1 R30S, Q15424 | -0.133 ± 0.062
Scaffold attachment factor B1 E80W, Q15424 | -0.409 ± 0.15
Scaffold attachment factor B1 L34A, Q15424 | -0.482 ± 0.064
Scaffold attachment factor B1 D67H, Q15424 | -0.333 ± 0.051
Scaffold attachment factor B1 E80M, Q15424 | -0.361 ± 0.19

Substance | abundance fitness
Scaffold attachment factor B1 G70T, Q15424 | -0.408 ± 0.092
Scaffold attachment factor B1 N47V, Q15424 | -0.448 ± 0.056
Scaffold attachment factor B1 D38Y, Q15424 | -0.913 ± 0.12
Scaffold attachment factor B1 L31I, Q15424 | -0.17 ± 0.06
Scaffold attachment factor B1 T78R, Q15424 | -0.123 ± 0.055
Scaffold attachment factor B1 I77R, Q15424 | -0.156 ± 0.055
Scaffold attachment factor B1 A64N, Q15424 | -0.551 ± 0.15
Scaffold attachment factor B1 L61R, Q15424 | -0.644 ± 0.057
Scaffold attachment factor B1 S50Q, Q15424 | -0.166 ± 0.086
Gamma-crystallin C R153W, P07315 | -0.775 ± 0.22
Scaffold attachment factor B1 G27S, Q15424 | -0.092 ± 0.07
Scaffold attachment factor B1 S51T, Q15424 | -0.326 ± 0.081
Scaffold attachment factor B1 G70W, Q15424 | -0.474 ± 0.055
Scaffold attachment factor B1 D73M, Q15424 | -0.468 ± 0.1
Scaffold attachment factor B1 D73N, Q15424 | -0.091 ± 0.097
Scaffold attachment factor B1 D49I, Q15424 | -0.514 ± 0.1
Scaffold attachment factor B1 D49Y, Q15424 | -0.5 ± 0.057
Scaffold attachment factor B1 D33Y, Q15424 | -0.813 ± 0.099
Scaffold attachment factor B1 N47Y, Q15424 | -0.483 ± 0.088
Scaffold attachment factor B1 R44S, Q15424 | -0.096 ± 0.065
Scaffold attachment factor B1 R60W, Q15424 | -1.17 ± 0.065
Scaffold attachment factor B1 S55W, Q15424 | -0.287 ± 0.056
